This note sets out measurements from the supplement of paper PMC7877785.

± gives the uncertainty stated by the source.

The data set is described as follows: self-splicing fitness, log relative to wild type (ln ratio); higher = more splicing; Tetrahymena group I intron in knt gene, E. coli kanamycin selection, DiMSum; sequences stand for … in CUCUCU…GGAGGGAAAAGUUAUCAGGCAUGCACCUGGUAGCUAGUCUUUAAACCAAUAGAUUGCAUCGGUUUAAAAGGCAAGACCGUCAAAUUGCGGGAAAGGGGUCAACAGCCGUUCAGUACCAAGUCUCAGGGGAAACUUUGAGAUGGCCUUGCAAAGGGUAUGGUAAUAAGCUGACGGACAUGGUCCUAACCACGCAGCCAAGUCCUAAGUCAACAGAUCUUCUGUUGAUAUGGAUGCAGUUCACAGACUAAAUGUCGGUCGGGGAAGAUGUAUUCUUCUCAUAAGAUAUAGUCGGACCUCUCCUUAAUGGGAGCUAGCGGAUGAAGUGAUGCAACACUGGAGCCGCUGGGAACUAAUUUGUAUGCGAAAGUAUAUUGAUUAGUUUUGGAGUACUCGUGGUCG
An outline of the steps: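 Colonies from six replicate transformations of E. coli BL21(DE3) were pooled and amplicon-sequenced on an Illumina HiSeq 2500. The library placed an intron with all eight P1ex-region nucleotides randomised inside the knt kanamycin-resistance gene on pET-22b(+), and cells grew overnight at 37°C or 30°C on LB agar with or without 25 μg/mL kanamycin (plus 100 μg/mL carbenicillin, 50 μM IPTG, 0.2% rhamnose). Fitness is the DiMSum error-weighted combination of wild-type-normalised replicate fold changes, kanamycin versus none.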

Consider UGUAAGCAAUAUUACGUCCA, for which the “self-splicing fitness (ln)” value by setting is: (30 °C) 0.388 ± 0.1; (37 °C) -0.132 ± 0.12.

On to UGUAAGCAAUAUUACGUGAG, for which the “self-splicing fitness (ln)” value was -1.07 ± 0.047 (30 °C) and -0.92 ± 0.077 (37 °C).

As for UGUAAGCAAUAUUACGUGCC, the “self-splicing fitness (ln)” value was -1.46 ± 0.2 (30 °C) and -0.0201 ± 0.22 (37 °C).

In the case of UGUAAGCAAUAUUACGUGGG, the “self-splicing fitness (ln)” value is, setting by setting: (30 °C) -3.6 ± 0.19; (37 °C) -2.42 ± 0.22.

As for UGUAAGCAAUAUUACGUUAA, the “self-splicing fitness (ln)” value was -2.04 ± 0.13 (30 °C) and -0.926 ± 0.12 (37 °C).

Take UGUAAGCAAUAUUACGUUCU: the “self-splicing fitness (ln)” value runs as follows: (30 °C) -0.123 ± 0.085; (37 °C) -0.0225 ± 0.1.

As for UGUCAGCAAUAUUACGACAU, the “self-splicing fitness (ln)” value is -3.964 ± 0.028 (30 °C) and -2.58 ± 0.04 (37 °C).

For UGUCAGCAAUAUUACGAUAG, the “self-splicing fitness (ln)” value runs as follows: (30 °C) -0.276 ± 0.072; (37 °C) 0.347 ± 0.088.

As for UGUCAGCAAUAUUACGAUCA, the “self-splicing fitness (ln)” value reads like this: (30 °C) -0.048 ± 0.086; (37 °C) -0.0719 ± 0.11.

Turning to UGUCAGCAAUAUUACGCCGG, the “self-splicing fitness (ln)” value runs as follows: (30 °C) -2.61 ± 0.5; (37 °C) -0.725 ± 0.36.

With UGUCAGCAAUAUUACGCUAU, the “self-splicing fitness (ln)” value reads like this: (30 °C) -1.83 ± 0.11; (37 °C) -1.3 ± 0.12.

For UGUCAGCAAUAUUACGGCAA, the “self-splicing fitness (ln)” value is -0.754 ± 0.075 (30 °C) and -0.0955 ± 0.098 (37 °C).

For UGUCAGCAAUAUUACGGGGG, the “self-splicing fitness (ln)” value runs as follows: (30 °C) -2.6 ± 0.14; (37 °C) -1.64 ± 0.15.

As to UGUCAGCAAUAUUACGUACG, the “self-splicing fitness (ln)” value is, setting by setting: (30 °C) -0.208 ± 0.15; (37 °C) 0.45 ± 0.15.

Consider UGUCAGCAAUAUUACGUCCA, for which the “self-splicing fitness (ln)” value (30 °C) is -0.159 ± 0.094 and the “self-splicing fitness (ln)” value (37 °C) was -0.505 ± 0.12.

For UGUCAGCAAUAUUACGUUUU, the “self-splicing fitness (ln)” value was -3.83 ± 0.2 (30 °C) and -2.23 ± 0.14 (37 °C).

With UGUGAGCAAUAUUACGAAAU, the “self-splicing fitness (ln)” value by setting is: (30 °C) -3.01 ± 0.18; (37 °C) -3.22 ± 0.35.

UGUGAGCAAUAUUACGAAUU: the “self-splicing fitness (ln)” value is -4.64 ± 0.46 (30 °C) and -1.8 ± 0.45 (37 °C).

UGUGAGCAAUAUUACGAGUG: the “self-splicing fitness (ln)” value (30 °C) was -1.4 ± 0.071 and the “self-splicing fitness (ln)” value (37 °C) was -1.16 ± 0.08.

For the sequence UGUGAGCAAUAUUACGAUCA, the “self-splicing fitness (ln)” value (30 °C) is -0.397 ± 0.23 and the “self-splicing fitness (ln)” value (37 °C) is -0.874 ± 0.32.

UGUGAGCAAUAUUACGCAAC: the “self-splicing fitness (ln)” value (30 °C) was -2.24 ± 0.28 and the “self-splicing fitness (ln)” value (37 °C) was -2.4 ± 0.46.

Regarding UGUGAGCAAUAUUACGCACA, the “self-splicing fitness (ln)” value was -2.63 ± 0.29 (30 °C) and -2.84 ± 0.34 (37 °C).

Consider UGUGAGCAAUAUUACGCCCU, for which the “self-splicing fitness (ln)” value (30 °C) is -1.54 ± 0.44 and the “self-splicing fitness (ln)” value (37 °C) is -0.113 ± 0.36.

With UGUGAGCAAUAUUACGCCGA, the “self-splicing fitness (ln)” value by setting is: (30 °C) -3.5 ± 0.39; (37 °C) -1.77 ± 0.27.

On to UGUGAGCAAUAUUACGCCUA, for which the “self-splicing fitness (ln)” value (30 °C) was -0.115 ± 0.23.

For UGUGAGCAAUAUUACGCGAG, the “self-splicing fitness (ln)” value is -2.69 ± 0.22 (30 °C) and -1.63 ± 0.23 (37 °C).

As for UGUGAGCAAUAUUACGCGCU, the “self-splicing fitness (ln)” value is, setting by setting: (30 °C) -2.53 ± 0.27; (37 °C) -3.1 ± 0.37.

Consider UGUGAGCAAUAUUACGCGUA, for which the “self-splicing fitness (ln)” value is -2.35 ± 0.34 (30 °C) and -0.703 ± 0.27 (37 °C).

Regarding UGUGAGCAAUAUUACGGCAC, the “self-splicing fitness (ln)” value (30 °C) is -3.21 ± 0.23 and the “self-splicing fitness (ln)” value (37 °C) is -2.21 ± 0.23.

Turning to UGUGAGCAAUAUUACGGGCA, the “self-splicing fitness (ln)” value is, setting by setting: (30 °C) -0.886 ± 0.069; (37 °C) -0.176 ± 0.081.

With UGUGAGCAAUAUUACGGGGU, the “self-splicing fitness (ln)” value (30 °C) is -3.98 ± 0.21 and the “self-splicing fitness (ln)” value (37 °C) was -2.75 ± 0.28.

As for UGUGAGCAAUAUUACGGGUC, the “self-splicing fitness (ln)” value runs as follows: (30 °C) -4.25 ± 0.33; (37 °C) -2.41 ± 0.19.

With UGUGAGCAAUAUUACGGUUU, the “self-splicing fitness (ln)” value runs as follows: (30 °C) -3.66 ± 0.21; (37 °C) -2.65 ± 0.25.

UGUGAGCAAUAUUACGUAAU: the “self-splicing fitness (ln)” value (37 °C) is -2.2 ± 0.27.

As for UGUGAGCAAUAUUACGUACC, the “self-splicing fitness (ln)” value was -1.1 ± 0.23 (30 °C) and -0.269 ± 0.28 (37 °C).

In the case of UGUGAGCAAUAUUACGUAGA, under “37 °C”, the “self-splicing fitness (ln)” value is -0.751 ± 0.44.

Turning to UGUGAGCAAUAUUACGUAGG, the “self-splicing fitness (ln)” value is -3.5 ± 0.16 (30 °C) and -1.5 ± 0.14 (37 °C).

UGUGAGCAAUAUUACGUAUG: the “self-splicing fitness (ln)” value (30 °C) is -1.22 ± 0.1 and the “self-splicing fitness (ln)” value (37 °C) is -1.26 ± 0.12.

For the sequence UGUGAGCAAUAUUACGUCAA, the “self-splicing fitness (ln)” value was -3.68 ± 0.35 (30 °C) and -2.65 ± 0.31 (37 °C).

Take UGUGAGCAAUAUUACGUCAG: the “self-splicing fitness (ln)” value is, setting by setting: (30 °C) -1.88 ± 0.3; (37 °C) -1.02 ± 0.24.

For the sequence UGUGAGCAAUAUUACGUCCA, the “self-splicing fitness (ln)” value by setting is: (30 °C) -0.973 ± 0.13; (37 °C) -0.0412 ± 0.16.

UGUGAGCAAUAUUACGUCUG: the “self-splicing fitness (ln)” value (30 °C) was -0.95 ± 0.15 and the “self-splicing fitness (ln)” value (37 °C) is -0.000357 ± 0.17.

With UGUGAGCAAUAUUACGUGCG, the “self-splicing fitness (ln)” value is, setting by setting: (30 °C) -1.36 ± 0.11; (37 °C) -1.06 ± 0.14.

As to UGUGAGCAAUAUUACGUGGG, the “self-splicing fitness (ln)” value is -3.67 ± 0.25 (30 °C) and -2.34 ± 0.15 (37 °C).

With UGUGAGCAAUAUUACGUUAU, the “self-splicing fitness (ln)” value by setting is: (30 °C) -4.11 ± 0.28; (37 °C) -3.51 ± 0.28.

Take UGUGAGCAAUAUUACGUUGA: the “self-splicing fitness (ln)” value by setting is: (30 °C) -2.82 ± 0.14; (37 °C) -2.11 ± 0.15.

Consider UGUUAGCAAUAUUACGAAUG, for which the “self-splicing fitness (ln)” value runs as follows: (30 °C) -1.1 ± 0.097; (37 °C) -0.239 ± 0.13.

With UGUUAGCAAUAUUACGAUAU, the “self-splicing fitness (ln)” value is -2.45 ± 0.21 (30 °C) and -0.289 ± 0.25 (37 °C).

Take UGUUAGCAAUAUUACGCCAG: the “self-splicing fitness (ln)” value (30 °C) was -1.36 ± 0.23 and the “self-splicing fitness (ln)” value (37 °C) was -1.76 ± 0.35.

Regarding UGUUAGCAAUAUUACGCCGG, the “self-splicing fitness (ln)” value (30 °C) is -0.866 ± 0.13 and the “self-splicing fitness (ln)” value (37 °C) is -0.696 ± 0.19.

UGUUAGCAAUAUUACGCCUG: the “self-splicing fitness (ln)” value came to 0.435 ± 0.13 (30 °C) and 0.171 ± 0.17 (37 °C).

Take UGUUAGCAAUAUUACGCUCA: the “self-splicing fitness (ln)” value is, setting by setting: (30 °C) 0.179 ± 0.19; (37 °C) -0.292 ± 0.18.

For UGUUAGCAAUAUUACGCUGG, the “self-splicing fitness (ln)” value was -3.77 ± 0.24 (30 °C) and 0.0911 ± 0.15 (37 °C).

For the sequence UGUUAGCAAUAUUACGGAUG, the “self-splicing fitness (ln)” value by setting is: (30 °C) -1.89 ± 0.12; (37 °C) -0.39 ± 0.11.

As for UGUUAGCAAUAUUACGGGAA, the “self-splicing fitness (ln)” value by setting is: (30 °C) -1.84 ± 0.24; (37 °C) -0.696 ± 0.2.

In the case of UGUUAGCAAUAUUACGGGUA, the “self-splicing fitness (ln)” value is -0.939 ± 0.15 (30 °C) and -1.4 ± 0.16 (37 °C).

Take UGUUAGCAAUAUUACGGUGA: the “self-splicing fitness (ln)” value is, setting by setting: (30 °C) -1.51 ± 0.18; (37 °C) -0.192 ± 0.19.

Take UGUUAGCAAUAUUACGUAAU: the “self-splicing fitness (ln)” value is -2.96 ± 0.3 (30 °C) and -1.02 ± 0.21 (37 °C).

Regarding UGUUAGCAAUAUUACGUACC, the “self-splicing fitness (ln)” value is -0.945 ± 0.14 (30 °C) and 0.399 ± 0.17 (37 °C).

Consider UGUUAGCAAUAUUACGUAGC, for which the “self-splicing fitness (ln)” value (37 °C) is -0.793 ± 0.22.

As for UGUUAGCAAUAUUACGUCCA, the “self-splicing fitness (ln)” value (30 °C) is -0.514 ± 0.071 and the “self-splicing fitness (ln)” value (37 °C) stood at 0.305 ± 0.13.
